Assay results as given in US20060073508A1 (published 2006).

Target: GRK2 (βARK1)
Experiment: cell-based or functional assay

agonist-promoted whole cell phosphorylation of the receptor (10 µM norepinephrine): 5.84 fold increase
B1: hemagglutinin epitope-tagged wild-type human alpha-2B adrenergic receptor (receptor)
chain: YPYDVPDYAMDHQDPYSVQATAAIAAAITFLILFTIFGNALVILAVLTSRSLRAPQNLFLVSLAAADILVATLIIPFSLANELLGYWYFRRTWCEVYLALDVLFCTSSIVHLCAISLDRYWAVSRALEYNSKRTPRRIKCIILTVWLIAAVISLPPLIYKGDQGPQPRGRPQCKLNQEAWYILASSIGSFFAPCLIMILVYLRIYLIAKRSNRRGPRAKGGPGQGESKQPRPDHGGALASAKLPALASVASAREVNGHSKSTGEKEEGETPEDTGTRALPPSWAALPNSGQGQKEGVCGASPEDEAEEEEEEEEEEEECEPQAVPVSPASACSPPLQQPQGSRVLATLRGQVLLGRGVGAIGGQWWRRRAQLTREKRFTFVLAVVIGVFVLCWFPFFFSYSLGAICPKHCKVPHGLFQFFFWIGYCNSSLNPVIYTIFNQDFRRAFRRILCRPWTQTAW
